# Data reported in patent publication US20050064507.
# T1: CXCR4 peptide VSRGSSLKILSK (SEQ ID NO:212) (not fully specified)
# T1 chain: VSRGSSLKILSK
# T2: GPR105 peptide KSSRNSTSVKKK (SEQ ID NO:206) (not fully specified)
# T2 chain: KSSRNSTSVKKK
# T3: GRK6 peptide GNRKGKSKKWRQ (SEQ ID NO:192) (not fully specified)
# T3 chain: GNRKGKSKKWRQ
# T4: IDN3 peptide VRRRRSQRISQR (SEQ ID NO:172) (not fully specified)
# T4 chain: VRRRRSQRISQR
# T5: IDN3 peptide VSRPRKSRKRVD (SEQ ID NO:208) (not fully specified)
# T5 chain: VSRPRKSRKRVD
# T6: LRMP peptide RFSRRSSSWRIL (SEQ ID NO:204) (not fully specified)
# T6 chain: RFSRRSSSWRIL
# T7: NKTR peptide RSRSYSRSRSR (SEQ ID NO:211) (not fully specified)
# T7 chain: RSRSYSRSRSR
# T8: gap-43 peptide SFRGHITRKKLK (SEQ ID NO:207) (not fully specified)
# T8 chain: SFRGHITRKKLK
# T9: ribosomal protein S6 peptide TGERKRKSVRG (SEQ ID NO:181) (not fully specified)
# T9 chain: TGERKRKSVRG
# T10: serine/threonine-protein kinase PRP4 peptide RGRRSRSRLRRR (SEQ ID NO:199) (not fully specified)
# T10 chain: RGRRSRSRLRRR
# T11: serine/threonine-protein kinase PRP4 peptide TKKRSKSRSKER (SEQ ID NO:215) (not fully specified)
# T11 chain: TKKRSKSRSKER
# B1: PKC-theta (protein)
# chain: MSPFLRIGLSNFDCGSCQSCQGEAVNPYCAVLVKEYVESENGQMYIQKKPTMYPPWDSTFDAHINKGRVMQIIVKGKNVDLISETTVELYSLAERCRKNNGKTEIWLELKPQGRMLMNARYFLEMSDTKDMNEFETEGFFALHQRRGAIKQAKVHHVKCHEFTATFFPQPTFCSVCHEFVWGLNKQGYQCRQCNAAIHKKCIDKVIAKCTGSAINSRETMFHKERFKIDMPHRFKVYNYKSPTFCEHCGTLLWGLARQGLKCDACGMNVHHRCQTKVANLCGINQKLMAEALAMIESTQQARCLRDTEQIFREGPVEIGLPCSIKNEARPPCLPTPGKREPQGISWESPLDEVDKMCHLPEPELNKERPSLQIKLKIEDFILHKMLGKGSFGKVFLAEFKKTNQFFAIKALKKDVVLMDDDVECTMVEKRVLSLAWEHPFLTHMFCTFQTKENLFFVMEYLNGGDLMYHIQSCHKFDLSRATFYAAEIILGLQFLHSKGIVYRDLKLDNILLDKDGHIKIADFGMCKENMLGDAKTNTFCGTPDYIAPEILLGQKYNHSVDWWSFGVLLYEMLIGQSPFHGQDEEELFHSIRMDNPFYPRWLEKEAKDLLVKLFVREPEKRLGVRGDIRQHPLFREINWEELERKEIDPPFRPKVKSPFDCSNFDKEFLNEKPRLSFADRALINSMDQNMFRNFSFMNPGMERLIS
# Key:
# [1] = biological target: T1, CXCR4 peptide VSRGSSLKILSK (SEQ ID …)
# [2] = biological target: T2, GPR105 peptide KSSRNSTSVKKK (SEQ ID …)
# [3] = biological target: T3, GRK6 peptide GNRKGKSKKWRQ (SEQ ID …)
# [4] = biological target: T4, IDN3 peptide VRRRRSQRISQR (SEQ ID …)
# [5] = biological target: T5, IDN3 peptide VSRPRKSRKRVD (SEQ ID …)
# [6] = biological target: T6, LRMP peptide RFSRRSSSWRIL (SEQ ID …)
# [7] = biological target: T7, NKTR peptide RSRSYSRSRSR (SEQ ID NO:211)
# [8] = biological target: T8, gap-43 peptide SFRGHITRKKLK (SEQ ID …)
# [9] = biological target: T9, ribosomal protein S6 peptide …
# [10] = biological target: T10, serine/threonine-protein kinase PRP4 …
# [11] = biological target: T11, serine/threonine-protein kinase PRP4 …
protein,measurement,setting,value
B1,in vitro phosphorylation (% of best substrate),[1],13
same,in vitro phosphorylation (% of best substrate),[2],19
same,in vitro phosphorylation (% of best substrate),[3],35
same,in vitro phosphorylation (% of best substrate),[4],86
same,in vitro phosphorylation (% of best substrate),[5],17
same,in vitro phosphorylation (% of best substrate),[6],22
same,in vitro phosphorylation (% of best substrate),[7],16
same,in vitro phosphorylation (% of best substrate),[8],18
same,in vitro phosphorylation (% of best substrate),[9],62
same,in vitro phosphorylation (% of best substrate),[10],27
same,in vitro phosphorylation (% of best substrate),[11],12
